Assay results: article PMC5910400, “Genetically engineered two-warhead evasins provide a method to achieve precision targeting of disease-relevant chemokine subsets” (Scientific Reports, 2018)

B1: CCL3L1 (ligand, human, UniProt P16619 24-93, looked up)
chain: APLAADTPTACCFSYTSRQIPQNFIADYFETSSQCSKPSVIFLTKRGRQVCADPSEEWVQKYVSDLELSA
notes: source: bought: Peprotech
B2: CCL22 (ligand, human, UniProt O00626 25-93, looked up)
chain: GPYGANMEDSVCCRDYVRYRLPLRVVKHFYWTSDSCPRPGVVLLTFRDKEICADPRVPWVKMILNKLSQ
notes: source: bought: Peprotech
B3: CCL3 (ligand, human, UniProt P10147 24-92, looked up)
chain: SLAADTPTACCFSYTSRQIPQNFIADYFETSSQCSKPGVIFLTKRSRQVCADPSEEWVQKYVSDLELSA
notes: source: bought: Peprotech
B4: P1243 (evasin from Amblyomma americanum), purified, C-terminal StrepII:8xHis tag (natural protein)
chain: ETGRNHTEDNSTEYYDYEEARCACPARHLNNTNGTVLKLLGCHYFCNGTLCTAPDGYPCYNLTAQQVRTLTTYPNTSCAVGVCMKGTCVKNGTMEQCFKTP
B5: CCL5 (ligand, human, UniProt P13501 24-91, looked up)
chain: SPYSSDTTPCCFAYIARPLPRAHIKEYFYTSGKCSNPAVVFVTRKNRQVCANPEKKWVREYINSLEMS
notes: source: bought: Peprotech
B6: CCL1 (ligand, human, UniProt P22362 24-96, looked up)
chain: KSMQVPFSRCCFSFAEQEIPLRAILCYRNTSSICSNEGLIFKLKRGKEACALDTVGWVQRHRKMLRHCPSKRK
notes: source: bought: Peprotech

Tests used:
[1] = biological target: B4; assay: BLI; titration; evasin immobilised on the sensor through the C-terminal His tag; chemokine 300 nM to 0.4 nM (CXCL2: 600 nM to 1.2 nM), at least five concentrations; non-interacting reference protein; one-site binding fit or steady state analysis; conditions: both partners purified
CCL3L1 = biological target: B1; assay: cell-based or functional assay
CCL5 = biological target: B5; assay: cell-based or functional assay
CCL3 = biological target: B3; assay: cell-based or functional assay

Binder | binding result [1] | further results
B1 | binds | 
B2 | binds | 
B3 | binds | 
B4 |  | mean IC50 (three biological replicates) of inhibition of THP-1 cell migration induced by the EC80 dose of CCL3L1 (CCL3L1): 1e-09 M; mean IC50 (three biological replicates) of inhibition of THP-1 cell migration induced by the EC80 dose of CCL5 (CCL5): 8.9e-09 M; mean IC50 (three biological replicates) of inhibition of THP-1 cell migration induced by the EC80 dose of CCL3 (CCL3): 6.5e-09 M
B5 | binds | 
B6 | binds | 
